Laboratory results as given in patent publication US5849493, “Screening assay for compounds stimulating somatostatin transcription factor -1 binding to an STF-1 binding site” (Research Development Foundation).

Legend:
STF-1 (IPF1/IDX-1/PDX1) [1] = biological target: T1, STF-1 (IPF1/IDX-1/PDX1) (UniProt P52947 P52947:1-283); assay: EMSA; conditions: tags: GST fusion (pGEX3X, E. coli), GST removable by factor Xa; label: 32P
Description: (§1) Gel mobility shift assays were performed exactly as described previously (20) using 0.1 ng of end-labeled double stranded oligonucleotide whose sequences are presented in FIG. 2C. For off-rate analysis, the TSEII probe was first incubated with the proteins at room temperature for 30 minutes, then a 1000-fold excess of unlabeled TSEII oligonucleotide was added and aliquots were loaded at various time points on a running gel. In supershift assays, TU6 nuclear cell extract was preincubated with 1 µl of Pbx (11) or STF-antiserum (20) for 15 minutes at room temperature before adding the TSEII probe.
(§2) To determine whether Pbx and STF-1 can bind cooperatively to other STF-1 target sites besides TSEII, gel shift assays were performed with the recombinant STF-1 and Pbx proteins on the somatostatin TSEI or insulin P and Flat elements, sites which bind STF-1 and which are required for islet cell restricted expression of the rat somatostatin and insulin I genes, respectively, in pancreatic cells (FIG. 2D and FIG. 2E). In contrast to the TSEII element (FIG. 2D, lanes 1–4), no heteromeric STF-1-Pbx complex was observed on the TSEI, P or FLAT elements. Indeed, heteromeric STF-1 complexes are also undetectable when the TSEI, P, or FLAT elements are used in gel shift assays of crude pancreatic cell extracts (data not shown) (20).

STF-1 + Pbx1 heterodimer [2] = biological target: T2, STF-1 + Pbx1 heterodimer (UniProt P52947;P40424 P52947:1-283,P40424:1-430); assay: EMSA; no heteromeric complex; conditions: tags: STF-1 recombinant from E. coli; Pbx1 in vitro translated in reticulocyte lysate; label: 32P
Description: as §1, §2

STF-1 + Pbx1 heterodimer [3] = biological target: T2, STF-1 + Pbx1 heterodimer; assay: EMSA; minimal effect on cooperativity; conditions: tags: STF-1 recombinant from E. coli; Pbx1 in vitro translated in reticulocyte lysate; label: 32P
Source text: Gel mobility shift assay using TSE II oligonucleotide plus STF-1 and/or Pbx as indicated over each lane. TNT, control lysate. […] Off-rate analysis of STF-1 and STF-1 Pbx complexes using somatostatin TSE II oligonucleotide as probe. Time (in minutes) after addition of excess unlabeled TSE II oligo as indicated. Complexes C1 and C2, corresponding to STF-1 monomer and STF-1/PBX heterodimer, respectively, as indicated. […] TSEII, wild-type TSE II oligonucleotide. P and FLAT, insulin I promoter elements which recognize STF-1 with high affinity. TSEI, somatostatin promoter element which binds STF-1. PBX, in vitro translated PBX protein added to binding reactions; STF, full length recombinant STF-1 protein. […] Brackets indicate consensus TAAT motifs which were targeted for mutagenesis. […] Transient transfection assay of GC cells using STF-1 and E2A-Pbx effector plasmids as indicated below each bar. […] Activities were normalized to co-transfected RSV-CAT control plasmid.
as §1, with “In supershift assays, TU6 nuclear cell extract was preincubated with 1 µl of Pbx (11) or STF-antiserum (20) for 15 minutes at room temperature before adding the TSEII probe.” left out

[4] = biological target: STF-1 FPWMK to AAGGQ mutant (UniProt P52947 P52947:1-283, FPWMK to AAGGQ); assay: EMSA; wild-type binding activity; conditions: label: 32P
STF-1 (IPF1/IDX-1/PDX1) [5] = biological target: T1, STF-1 (IPF1/IDX-1/PDX1); assay: EMSA; high affinity site; conditions: tags: GST fusion (pGEX3X, E. coli), GST removable by factor Xa; label: 32P
STF-1 + Pbx1 heterodimer [6] = biological target: T2, STF-1 + Pbx1 heterodimer; assay: EMSA; no heteromeric complex; no synergy in reporter assay; conditions: tags: STF-1 recombinant from E. coli; Pbx1 in vitro translated in reticulocyte lysate; label: 32P
Description: as §1
as §2, with “(20). […]” for “(20).”

T2 sequence (P52947 whole entry, chain 1 of 2): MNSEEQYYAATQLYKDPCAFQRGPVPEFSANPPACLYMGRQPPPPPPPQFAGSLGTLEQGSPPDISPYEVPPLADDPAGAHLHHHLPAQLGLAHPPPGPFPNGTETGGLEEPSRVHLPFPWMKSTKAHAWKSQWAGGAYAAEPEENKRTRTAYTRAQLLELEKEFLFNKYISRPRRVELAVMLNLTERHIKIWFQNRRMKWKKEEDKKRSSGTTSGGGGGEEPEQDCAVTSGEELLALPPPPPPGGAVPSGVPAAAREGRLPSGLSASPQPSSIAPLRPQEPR
T2 sequence (P40424 whole entry, chain 2 of 2): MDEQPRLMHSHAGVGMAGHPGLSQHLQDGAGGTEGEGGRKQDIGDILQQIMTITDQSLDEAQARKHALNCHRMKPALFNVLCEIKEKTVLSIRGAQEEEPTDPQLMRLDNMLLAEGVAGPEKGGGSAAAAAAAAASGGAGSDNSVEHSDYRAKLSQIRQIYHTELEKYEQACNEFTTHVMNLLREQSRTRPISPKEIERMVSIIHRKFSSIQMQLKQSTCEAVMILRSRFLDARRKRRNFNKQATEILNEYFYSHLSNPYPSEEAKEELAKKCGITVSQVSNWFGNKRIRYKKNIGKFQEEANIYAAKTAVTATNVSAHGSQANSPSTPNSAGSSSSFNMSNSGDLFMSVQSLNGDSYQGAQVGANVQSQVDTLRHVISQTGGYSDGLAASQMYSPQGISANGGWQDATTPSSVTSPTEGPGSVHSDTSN
T1 sequence (P52947 whole entry, the tested form may be a part, one chain of several): as the sequence (P52947 whole entry, chain 1 of 2) above
Sequence of STF-1 FPWMK to AAGGQ mutant (P52947 other isoform, or with tags, fused parts or gaps FPWMK to AAGGQ | mutant): as the sequence (P52947 whole entry, chain 1 of 2) above, with F119A, P120A, W121G, M122G, K123Q counted along it

B1: somatostatin TSEI (dsDNA)
DNA 1: GATCTTGCGAGGCTAATGGTGCG
DNA 2: GTACCGCACCATTAGCCTCGCAA
binding result (STF-1 (IPF1/IDX-1/PDX1) [1]): binds
binding result (STF-1 + Pbx1 heterodimer [2]): no binding

B2: TSEII M3 (dsDNA)
DNA 1: GATCTCAGTAATTATACATGCA
DNA 2: GTACTGCATGTATAATTACTGA
binding result (STF-1 + Pbx1 heterodimer [3]): binds

B3: insulin I P element (dsDNA)
DNA 1: GATCTAGAGCCCTTAATGGGCCAAA
DNA 2: GATCTTTGGCCCATTAAGGGCTCTA
binding result [4]: binds
binding result (STF-1 (IPF1/IDX-1/PDX1) [5]): binds
binding result (STF-1 + Pbx1 heterodimer [6]): no binding
